# Reference: paper PMC3614988
# Columns and labels:
# [1] = target: Rai14 (retinoic acid induced protein 14) (rat (endogenous in testis)) (UniProt Q5U312); experiment: co-IP; testis lysates (800 µg protein) of rats 12 hr after a single dose of adjudin (50 mg/kg b.w., by gavage); anti-Rai14 IgG as precipitating antibody, blot with anti-actin antibody; compared with 0 hr
# [2] = target: Rai14 (retinoic acid induced protein 14) (rat (endogenous in testis)) (UniProt Q5U312); experiment: co-IP; testis lysates (800 µg protein) of rats 48 hr after a single dose of adjudin (50 mg/kg b.w., by gavage); anti-Rai14 IgG as precipitating antibody, blot with anti-actin antibody; compared with 0 hr
# Chain of UniProt Q5U312 (Q5U312 whole entry): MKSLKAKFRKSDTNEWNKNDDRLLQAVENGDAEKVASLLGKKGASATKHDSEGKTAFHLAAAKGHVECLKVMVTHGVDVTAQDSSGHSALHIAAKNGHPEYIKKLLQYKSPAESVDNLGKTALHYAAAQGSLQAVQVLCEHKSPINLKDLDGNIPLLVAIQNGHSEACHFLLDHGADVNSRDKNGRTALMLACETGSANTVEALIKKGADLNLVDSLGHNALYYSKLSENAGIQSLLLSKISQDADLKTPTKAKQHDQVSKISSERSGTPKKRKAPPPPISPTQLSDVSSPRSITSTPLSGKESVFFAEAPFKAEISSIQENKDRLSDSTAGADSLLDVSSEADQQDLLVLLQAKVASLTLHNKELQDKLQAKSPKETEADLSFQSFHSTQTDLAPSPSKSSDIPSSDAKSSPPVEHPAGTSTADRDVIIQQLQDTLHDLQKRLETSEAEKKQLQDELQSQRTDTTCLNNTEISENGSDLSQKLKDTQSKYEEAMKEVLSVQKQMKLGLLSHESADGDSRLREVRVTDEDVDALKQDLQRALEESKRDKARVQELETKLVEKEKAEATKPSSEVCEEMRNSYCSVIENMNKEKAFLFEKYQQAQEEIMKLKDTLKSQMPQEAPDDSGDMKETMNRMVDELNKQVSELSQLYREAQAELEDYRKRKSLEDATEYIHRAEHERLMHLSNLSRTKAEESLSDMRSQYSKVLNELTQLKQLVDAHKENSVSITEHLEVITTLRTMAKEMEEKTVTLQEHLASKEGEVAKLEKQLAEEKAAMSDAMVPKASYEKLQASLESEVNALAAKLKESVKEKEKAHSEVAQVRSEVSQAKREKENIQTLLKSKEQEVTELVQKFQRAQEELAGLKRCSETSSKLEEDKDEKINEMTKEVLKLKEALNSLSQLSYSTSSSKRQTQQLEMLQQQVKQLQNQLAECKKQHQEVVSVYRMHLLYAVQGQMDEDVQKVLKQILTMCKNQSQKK
substance,measurement,setting,value
actin (from UniProt P60711 1-375) (natural protein),percent reduction of the Rai14-actin co-IP against 0 hr,[1],35%
same,percent loss of the Rai14-actin co-IP against 0 hr,[2],90%
